Earlier results on 2 substances are cited in patent US20220133873A1, “CANCER THERAPY” (Madison Vaccines Inc., priority 2019, published 2022).

For data set [1] the following is noted: intravenously or subcutaneously, doses 50 to 500 μg/m2/day.
The test system of data set [2] is advanced (metastatic) melanoma. To be noted: 173 patients, 2 mg/kg or 10 mg/kg at 3-week intervals.

In the case of “GM-CSF: Granulocyte-macrophage colony-stimulating factor, vaccine adjuvant”, the tolerability entry in data set [1] is “generally well tolerated”. In the case of pembrolizumab, the “drug-related grade 3 or 4 adverse event reported in more than one patient” value in data set [2] is recorded as “Grade 3 fatigue”. Further, the overall response rate in data set [2] (irrespective of dose) is given as 26%.
